Test results reported in paper PMC13167773, “Chiral inversion mutagenesis identifies geometrically constrained residues within self-associating low-complexity domains” (Proceedings of the National Academy of Sciences of the …, 2026).
Where two headings read alike, the source gives them in different places.

How the values were obtained:
[1] = molecular target: T1, wild-type glutathione S-transferase (GST)-EMD LCD fusion protein; assay: pull-down; WT GST-EMD LCD immobilized on glutathione resin, incubated with HA-tagged EMD LCD prey (50 nM), washed with binding buffer, eluted with GSH; anti-HA Western blot of eluent relative to input, densitometry, n = 3
T1 sequence (P50402 whole entry, species assumed, looked up): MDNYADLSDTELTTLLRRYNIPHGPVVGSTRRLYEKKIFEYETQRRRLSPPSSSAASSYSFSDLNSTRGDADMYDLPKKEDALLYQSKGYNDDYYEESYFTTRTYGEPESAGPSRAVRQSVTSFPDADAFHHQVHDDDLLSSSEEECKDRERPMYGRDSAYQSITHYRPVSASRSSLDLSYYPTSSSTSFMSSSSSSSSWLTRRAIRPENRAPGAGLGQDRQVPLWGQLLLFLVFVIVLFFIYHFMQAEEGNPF

[2] = turbidity (absorbance at 395 nm); untagged recombinant EMD LCD 3×Pro library, 60 μM LCD, transfer from denaturing to native Tris buffer, n = 3; self-association read as precipitation; conditions: other: turbidity (absorbance at 395 nm)
[3] = molecular target: T1, wild-type glutathione S-transferase (GST)-EMD LCD fusion protein; assay: pull-down; WT GST-EMD LCD immobilized on glutathione resin, incubated with HA-tagged EMD LCD prey (50 nM), washed with binding buffer, eluted with GSH; anti-HA Western blot of eluent relative to input, densitometry, n = 3; remark: listed apart in the source
[4] = molecular target: P50402; assay: turbidity (absorbance at 395 nm); untagged semisynthetic EMD LCD ChIM library, 50 μM LCD, rapid dilution from strong denaturant into physiological buffer, n = 3; conditions: other: turbidity (absorbance at 395 nm)
[5] = molecular target: P07196; assay: turbidity (absorbance at 395 nm); synthetic NEFL head domain 5×D library, 100 μM LCD, A395, n = 3; conditions: other: turbidity (absorbance at 395 nm)
[6] = molecular target: the molecule itself; assay: turbidity (absorbance at 395 nm); untagged semisynthetic EMD LCD ChIM library, 50 μM LCD, rapid dilution from strong denaturant into physiological buffer, n = 3
[7] = molecular target: the molecule itself; assay: turbidity (absorbance at 395 nm); synthetic NEFL head domain 5×D library, 100 μM LCD, A395, n = 3

In the case of “HA-tagged EMD LCD 3×Pro_(188-191) (domain or fragment)”, the fold reduction of pulldown relative to WT [1] is reported as 5 fold.

untagged EMD LCD 3×Pro_(193-196) showed a fold reduction of turbidity relative to WT [2] of 16.6 fold.

For untagged EMD LCD 3×Pro_(188-191), the fold reduction of turbidity relative to WT [2] was 108 fold.

For “HA-tagged EMD LCD 3×Pro_(193-196) (domain or fragment)”, the fold reduction of pulldown relative to WT [1] was 5.9 fold.

“HA-tagged EMD LCD 3×Pro_(183-186) (domain or fragment)” showed a fold reduction of pulldown relative to WT [1] of 2.2 fold.

For “HA-tagged EMD LCD 3×Pro_(198-201) (domain or fragment)”, the fold reduction of pulldown relative to WT [1] was 3.4 fold.

In the case of untagged EMD LCD 3×Pro_(203-206), the “fold reduction of turbidity relative to WT” value [2] is reported as 14.3-fold.

With untagged EMD LCD 3×Pro_(183-186) the “fold reduction of turbidity relative to WT” value [2] was “modestly reduces turbidity by 2.8-fold relative to WT”.

With untagged EMD LCD 3×Pro_(198-201) the fold reduction of turbidity relative to WT [2] was 34.7 fold.

B1: HA-tagged semisynthetic EMD LCD 3×D_(191-195) (domain or fragment)
chain: RRLSPPSSSAASSYSFSDLNSTRGDADMYDLPKKEDALLYQSKGYNDDYYEESYFTTRTYGEPESAGPSRAVRQSVTSFPDADAFHHQVHDDDLLSSSEEECKDRERPMYGRDSAYQSITHYRPVSASRSSLDLSYYPTSSSTCFMSSSSSSSSWLTRRAIRPENRAPGAGLGQER
modifications: three D-amino acids at alternating positions, 3×D_(191-195)
B1 showed a fold reduction of pulldown relative to WT [3] of 8.8 fold.

B2: HA-tagged semisynthetic EMD LCD 3×D_(195-199) (domain or fragment)
chain: B1 chain
modifications: three D-amino acids at alternating positions, 3×D_(195-199)
B2 gave a fold reduction of pulldown relative to WT [3] of 7.9 fold.

B3: HA-tagged semisynthetic EMD LCD 3×D_(199-203) (domain or fragment)
chain: B1 chain
modifications: three D-amino acids at alternating positions, 3×D_(199-203)
B3 showed a fold reduction of pulldown relative to WT [3] of 6.2 fold.

B4: HA-tagged semisynthetic EMD LCD 3×D_(203-207) (domain or fragment)
chain: B1 chain
modifications: three D-amino acids at alternating positions, 3×D_(203-207)
Work on B4 yielded a fold reduction of pulldown relative to WT [3] of 3.6 fold.

B5: HA-tagged semisynthetic EMD LCD 3×D_(207-211) (domain or fragment)
chain: B1 chain
modifications: three D-amino acids at alternating positions, 3×D_(207-211)
Molecule B5 has a fold difference of pulldown from WT [3] of 1.8 fold.

B6: HA-tagged semisynthetic EMD LCD 3×D_(211-215) (domain or fragment)
chain: B1 chain
modifications: three D-amino acids at alternating positions, 3×D_(211-215)
B6 gave a fold difference of pulldown from WT [3] of 1.7 fold.

B7: untagged semisynthetic EMD LCD 3×D_(191-195) (protein)
chain: B1 chain
In the case of B7, the fold decrease in turbidity [4] is reported as 13.3 fold.

B8: untagged semisynthetic EMD LCD 3×D_(195-199) (protein)
chain: B1 chain
B8 gave a fold decrease in turbidity [4] of 2.8 fold.

B9: untagged semisynthetic EMD LCD 3×D_(199-203) (protein)
chain: B1 chain
For B9, the “fold decrease in turbidity” value [4] was 2.1-fold.

B10: untagged semisynthetic EMD LCD 3×D_(203-207) (protein)
chain: B1 chain
For B10, the “fold decrease in turbidity” value [4] was “a modest 1.4-fold decrease in turbidity”.

B11: semisynthetic EMD LCD with a central 1×D inversion within the 3×D_(191-195) variant (protein)
chain: B1 chain
In the case of B11, the “fold decrease in turbidity relative to WT” value [4] is reported as “a 6.4-fold decrease in turbidity relative to WT”.

B12: synthetic NEFL head domain 5×D_(22-30) (protein)
chain: SSFSYEPYYSTSYKRRYVETPRVHISSVRCGYSTARSAYSSYSAPVSSSLSVRRSYSSSSGSLMPSLENLELS
For B12, the “fold decrease in turbidity relative to WT” value [5] was 9.1-fold.

B13: synthetic NEFL head domain 5×D_(33-41) (protein)
chain: B12 chain
With B13 the “fold decrease in turbidity relative to WT” value [5] was 20-fold.

B14: synthetic NEFL head domain 5×D_(43-51) (protein)
chain: B12 chain
For B14, the “fold decrease in turbidity relative to WT” value [5] was 2.7-fold.

B15: synthetic NEFL head domain 5×D_(53-63) (protein)
chain: B12 chain
With B15 the “fold decrease in turbidity relative to WT” value [5] was 1.6-fold.

B16: synthetic NEFL head domain 5×D_(63-71) (protein)
chain: B12 chain
Molecule B16 has a fold decrease in turbidity relative to WT [5] of 1 fold.

B17: untagged semisynthetic EMD LCD (residues 46 to 221), all-L-WT (domain or fragment, UniProt P50402 46-221, looked up)
chain: B1 chain
notes: Emerin (EMD) LCD residues 46 to 221, S189C and D220E; Rink amide resin implies a C-terminal amide (surmised); also called WT variant; source: RP-HPLC purified
B17: binds [6].

B18: synthetic NEFL head domain (residues 2 to 74), WT (domain or fragment, UniProt P07196 2-74, looked up)
chain: B12 chain
notes: neurofilament light chain (NEFL) head domain residues 2 to 74, ligation junction cysteine S31C and D72E; also called WT head domain; NEFL LCD; source: fully synthetic: NEFL-P1 (2 to 30, MesNa thioester) ligated to NEFL-P2 (31 to 74) by native chemical ligation; RP-HPLC purified
B18: binds [7].
